B1: Olaratumab (antibody, human IgG1, kappa)
heavy: not shown
light: not shown
notes: Fully human IgG1 monoclonal antibody; also called IMC-3G3; human Olaratumab
B2: K9-6N6.1 variant LC-S28A (clone 2A2) (antibody, V domains shown)
VH: QLQLQESGPGLVKPSETLSLTCTVSGGSINSSSYYWGWLRQSPGKGLEWIGSFFYTGSTYYNPSLRSRLTISVDTSKNQFSLMLSSVTAADTAVYYCARQSTYYYGSGNYYGWFDRWDQGTLVTVSS
VL: EIVLTQSPATLSLSPGERATLSCRASQAVSSYLAWYQQKPGQAPRLLIYDASNRATGIPARFSGSGSGTDFTLTISSLEPEDFAVYYCQQRSNWPPAFGQGTKVEIKR
B3: K9-6N6.1 (antibody)
heavy: QLQLQESGPGLVKPSETLSLTCTVSGGSINSSSYYWGWLRQSPGKGLEWIGSFFYTGSTYYNPSLRSRLTISVDTSKNQFSLMLSSVTAADTAVYYCARQSTYYYGSGNYYGWFDRWDQGTLVTVSSASTTAPSVFPLAPSCGSTSGSTVALACLVSGYFPEPVTVSWNSGSLTSGVHTFPSVLQSSGLYSLSSMVTVPSSRWPSETFTCNVAHPASKTKVDKPVPKRENGRVPRPPDCPKCPAPEMLGGPSVFIFPPKPKDTLLIARTPEVTCVVVDLDPEDPEVQISWFVDGKQMQTAKTQPREEQFNGTYRVVSVLPIGHQDWLKGKQFTCKVNNKALPSPIERTISKARGQAHQPSVYVLPPSREELSKNTVSLTCLIKDFFPPDIDVEWQSNGQQEPESKYRTTPPQLDEDGSYFLYSKLSVDKSRWQRGDTFICAVMHEALHNHYTQESLSHSPGK
light: EIVLTQSPATLSLSPGERATLSCRASQSVSSYLAWYQQKPGQAPRLLIYDASNRATGIPARFSGSGSGTDFTLTISSLEPEDFAVYYCQQRSNWPPAFGQGTKVEIKRNDAQPAVYLFQPSPDQLHTGSASVVCLLNSFYPKDINVKWKVDGVIQDTGIQESVTEQDKDSTYSLSSTLTMSSTEYLSHELYSCEITHKSLPSTLIKSFQRSECQRVD
notes: Olaratumab HCVR on canine IgB heavy constant region, Olaratumab LCVR on canine kappa constant region; also called parental K9-6N6.1; parent K9-6N6.1

What was measured:
[1] = biological target: T1, cPDGFRA extracellular domain (ECD)-Fc fusion protein (dog); experiment: comparison of the KD values of Table 1
T1 construct: extracellular domain; also called cPDGFRA-Fc; cPDGFRA-ECD-Xa-Fc

[2] = biological target: T1, cPDGFRA extracellular domain (ECD)-Fc …; experiment: kinetic binding to PDGFRA-Fc, antibody 30 nM; method not named for Table 1
[3] = biological target: T2, human PDGFRA-Fc (human, UniProt P16234 24-524, limits assumed); experiment: as above
T2 construct: also called PDGFRA-Fc (Human); not shown: Fc
T2 sequence (P16234 24-524 limits assumed): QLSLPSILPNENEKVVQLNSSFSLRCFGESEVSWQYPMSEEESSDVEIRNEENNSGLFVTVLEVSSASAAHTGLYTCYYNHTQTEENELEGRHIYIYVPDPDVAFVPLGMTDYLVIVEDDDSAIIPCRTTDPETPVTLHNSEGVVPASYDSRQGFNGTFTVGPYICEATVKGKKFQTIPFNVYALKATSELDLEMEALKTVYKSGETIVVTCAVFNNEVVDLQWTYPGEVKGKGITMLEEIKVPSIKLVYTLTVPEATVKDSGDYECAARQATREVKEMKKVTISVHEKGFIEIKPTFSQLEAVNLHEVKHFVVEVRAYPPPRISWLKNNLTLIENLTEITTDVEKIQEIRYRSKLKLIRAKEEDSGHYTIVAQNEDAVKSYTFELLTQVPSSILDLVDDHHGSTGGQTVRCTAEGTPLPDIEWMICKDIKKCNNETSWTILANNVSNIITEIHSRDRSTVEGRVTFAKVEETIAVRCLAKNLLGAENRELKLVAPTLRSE

[4] = biological target: human PDGFRA (human, UniProt P16234 24-524, limits assumed); experiment: binding ELISA on coated human PDGFRA; parental EC50 divided by variant EC50; pool evaluation
Sequence of human PDGFRA (P16234 24-524 limits assumed): as above

[5] = biological target: T1, cPDGFRA extracellular domain (ECD)-Fc …; experiment: titration binding ELISA on coated cPDGFRA-Fc; parental EC50 divided by variant EC50; pool evaluation
[6] = biological target: T3, canine platelet derived growth factor receptor alpha (cPDGFRA) (dog, UniProt A0A8I3NAN8 49-553, biotinylated (sites not given) in the blocking ELISA); experiment: blocking ELISA: antibody with biotinylated cPDGFRA on coated canine PDGFAA; parental IC50 divided by variant IC50; pool evaluation
T3 construct: The construct is not described; also called biotinylated-cPDGFRA

[7] = biological target: T1, cPDGFRA extracellular domain (ECD)-Fc …; experiment: binding ELISA on coated cPDGFRA-Fc; unit from paragraph 44
[8] = biological target: T1, cPDGFRA extracellular domain (ECD)-Fc …; experiment: SPR, BIAcore T200, cPDGFRA-ECD-Xa-Fc immobilized, antibody injected, 25 C
Procedure: The binding kinetics of selected K9-6N6.1 variants to cPDGFRA were measured using a BIAcore T200 instrument (BIAcore, Inc., Piscataway, N.J.). Briefly, a cPDGFRA extracellular domain (ECD)-Fc fusion protein was immobilized on a sensor chip and antibody was injected at various concentrations. Sensograms were obtained at each concentration and evaluated using the BIA Evaluation 3.0 program to determine rate constants. The affinity constant (KD) was calculated from the ratio of rate constants Koff/Kon. The evaluation was performed at 25° C.

[9] = biological target: T3, canine platelet derived growth factor …; experiment: blocking ELISA: antibody with biotinylated cPDGFRA on coated canine PDGFAA; unit from paragraph 44

Row | Binder | fold lower affinity than Olaratumab binding to human PDGFRA [1] | Kd [2] | koff [2] | kon [2] | Kd [3] | koff [3] | kon [3] | Human PDGFRA Binding EC50 improvement (fold) over parental K9-6N6.1 [4] | cPDGFRA Binding EC50 improvement (fold) over parental K9-6N6.1 [5] | cPDGFRA Blocking IC50 improvement (fold) over parental K9-6N6.1 [6] | EC50 [7] | Improvement (fold) of KD over parent K9-6N6.1 [8] | Kd [8] | koff [8] | kon [8] | IC50 [9]
1 | B1 | ~10 fold | 3.44 nM | 0.00294 s⁻¹ | 856000 M⁻¹ s⁻¹ | 0.307 nM | 0.000248 s⁻¹ | 808000 M⁻¹ s⁻¹ | – | – | – | – | – | – | – | – | –
2 | B2 | – | – | – | – | – | – | – | 1.83 fold | 1.43 fold | 13.4 fold | – | – | – | – | – | –
3 | B3 | ~10 fold | 1.92 nM | 0.00161 s⁻¹ | 840000 M⁻¹ s⁻¹ | – | – | – | – | – | – | 0.272 nM | 1 fold | 4.87 nM | 0.00247 s⁻¹ | 508000 M⁻¹ s⁻¹ | 31.5 nM

Reference: patent publication US20190300612A1 (ELANCO US, published 2019)
